Data published in the DeepSol protein solubility set.

Assay: soluble on expression in E. coli; label from the status in PepcDB or PDB records

Sequence | soluble on expression in E. coli
MGSDKIHHHHHHMADNFLSQEEVDALLRGVTNEQEDDTPALDPAGVREYNLATQERIVRGRMPTLEIINERFARLLRIGLFNFLRRTTEVSVGPVKISKYSEFIRNLVVPTNLNLVQMKPLRGTALMVFDPTLVFLIVDNLFGGDGRFHTRVEGRDFTQTEQRIIQRVLAIVFETYAKSWEPVYKLEFEYIRSEMNTQFANIATPNEVVVSTTFNIELGSASGEIHFCFPYSMIEPIRDLLTSPLQGEALGVDKRWVRLMTQQIQSAEVMLIADLAKAEMTLGDILNMKVGDVIPLSISEEIEAKVDNVPVMQCKYGVFNGQYALRVEKLLRSNSSEYVKGEVPDGD | not soluble
MGSDKIHHHHHHMAEIEQALASPQLIAEKVLKLPSKVLELDRKLADPQFDTKDLLALIEQDPLLSVEVLKLCNSPAFKRGEREVTSLQQALVQLGREQLRRFVTSSLVREMLDIKPIYFRRFGAEIWRHSMQVAFLASELSEEDRDTAFLLGLLHDVGKLAIFKMLLDAFVQAEPGEQPNSWLFRQVMTAKSLTLSALLAKHWQLPSTFETELDKLAHVHTRPNEGIAAVVWRANVISEISMLQQASKLPADMLSNLLALVGLEQAQFDELHEKLQQF | not soluble
MAGDPMRKSKLTFIATFLILLFLSMPYKAHAASQTPITRADAEQRALTMINLNWTYSKSKNGVLPSAYSGSITAPSQFRGIENVVATGIPYCWGGFDGLNSSSYGESWTNFTDAVNKGAFVGNVKSSSYGHITGTAGLDCSGFVQATFNIKDYKLSTSTIFNQYFTKIDIKDIKHMDILNLPGNHVVIFDKWGTRNGVNGAYTYEATPDTTYGGIQGTKQYFMSMNTVSQYIPGRYVNIKEVAYVQVINASSLNIRTGPSTSYPIIGTISQNQIAEVTGYSSDGTWYKIKINGIEGYASSTYLTYVNNLEHHHHHH | not soluble
MGSDKIHHHHHHMYNEYQPSLLLAPYIDKYWEFKGNPDYGMKINILPDGCTDFIFTLGEVADIAEQESLIMQPYRSYFVGPMSRYSTLITYAKSIHMFGIRFLPCGLFRFMQLPLEELGNQRISTFESGGIFNDSLAERLCEQPYIQDKIRLIESFLTQALCTNNKIEKQISYAVDCINLSKGQLPIRSLVENVCLCQRHFERKFKHQTGYSPKEYSRIIKFKNAVDLLRSTSSNQLFSVAIEAGYYDTAHLSKEIKALSGNTPGSFLSLPVTEETTLTYLKL | not soluble
MGSDKIHHHHHHMLESTKQFLKKYNINDRVLKLYETAMNDIQNQFKILDDIREFNQLKVLNAFQEERISEAHFTNSSGYGYGDIGRDSLDAVYARVFNTESALVRPHFVNGTHALGAALFGNLRPGNTMLSVCGEPYDTLHDVIGITENSNMGSLKEFGINYKQVDLKEDGKPNLEEIEKVLKEDESITLVHIQRSTGYGWRRALLIEDIKSIVDCVKNIRKDIICFVDNCYGEFMDTKEPTDVGADLIAGSLIKNIGGGIAPTGGYLAGTKDCIEKTSYRLTVPGIGGECGSTFGVVRSMYQGLFLAPHISMEALKGAILCSRIMELAGFEVMPKYDEKRSDIIQSIKFNDKDKLIEFCKGIQTGSPIDSFVSCEPWDMPGYTDQVIMAAGAFIQGSSIELSADAPIREPYIAYLQGGLTFDHAKIGILIALSRIVK | not soluble
MTSSPPSFMSYEDRIQEGDTVIVYVTYGQMVPTIVKRGQTLMMKYGALRHEFIIGKRWGQRLSATAGYVYILRPTSDLWTRALPRRTQILYTADCAQILSLLDAKPGSVICESGTGSGSLSHAIALTVAPTGHLYTHDIDETRTHKVLEEFKVHGLGSVTTAVVRNVCTSGFHVENAADGVFLDVPAPWEAIPFAAKSIFRARGGRLVSFSPCLEQVQRACLAMAAAGFVSIETIELVPEQKKIVSQHRQTLEEFEELGDAYPKERKRNVDGTIVEQSSSAIPRITIAIVYPYSQPTHTGYLTHATMLPVAE | not soluble
AHHHHHHGSAKLKEPIIAINFKTYIEATGKRALEIAKAAEKVYKETGVTIVVAPQLVDLRMIAESVEIPVFAQHIDPIKPGSHTGHVLPEAVKEAGAVGTLLNHSENRMILADLEAAIRRAEEVGLMTMVCSNNPAVSAAVAALNPDYVAVEPPELIGTGIPVSKAKPEVITNTVELVKKVNPEVKVLCGAGISTGEDVKKAIELGTVGVLLASGVTKAKDPEKAIWDLVSGIIKE | soluble
MGSDKIHHHHHHMRDMVPRLTKSYEASSQPIASIRSSVLSVVVGALEATGVSTDHLLAQHGLSRLTLDDPYNPVSLKNYVAFFEDAARMSSQPMLGIRLGNAIKAEDLGPVGVLYTMMQTLRSAIVRFSHFFPALQGSTKLGLSVRGDATWLEYQIEDQTIWPRRQDTEFTLALICALTRSRLGRGWAPEEIHFEHSAPTNGRDMAHFFGAVIRFDQPINRMLIRTEDLDLPFASANPAAIAIIEQHLNDLIGDGVVPAFEDAVLQAIMRCMKRGEVTLELVASRLGIGPRTLQRRLAATGRTFREIVQQQRHGTATVLLKDERIALGVVAGNLGYADTATMSRAFKTWTGQSPRAYSKKNRREAR | not soluble
MRLSFLTLQRRHALRDALRHKPAPRCRTQERTQSVQNGMPTRSVARLEHHHHHH | not soluble
MSLQWAKQSEQNVYSNRWFSVNLADVLLPDGRHLDHFLIRMRPVAVATVVNEADEVLLLWRHRFITDSWGWELAAGVVEDGEDVAVAAARELEEETGWRPGPLHHLMSVEPSNGLTDARHHVYWAEEGTYVGHPVDDFESERREWVPLKLVPDLVARGEVPAANMAAALLLLHHLRLGRDQEGHHHHHH | soluble
MTDAAIAEKDLGNAAYKQKDFEKAHVHYDKAIELDPSNITFYNNKAAVYFEEKKFAECVQFCEKAVEVGRETRADYKLIAKAMSRAGNAFQKQNDLSLAVQWFHRSLSEFRDPELVKKVKELEKQLKAAERLAYINPELAQEEKNKGNEYFKKGDYPTAMRHYNEAVKRDPENAILYSNRAACLTKLMEFQRALDDCDTCIRLDSKFIKGYIRKAACLVAMREWSKAQRAYEDALQVDPSNEEAREGVRNCLRSNDEDPEKAKERSLADPEVQEILRDPGMRMILEQMSNDPGAVREHLKNPEIFQKLMKLRDAGVIQMR | soluble
